The record followed here is publication PMC12668130, “RNA-induced PRC2 inhibition depends on the sequence of bound RNA”.

Series [1] has as its target PRC2 five-subunit (EZH2-EED-SUZ12-RBAP48-AEBP2) (UniProt Q15910-2;O75530;Q15022;Q09028;Q6ZN18-3 1-751;1-441;1-739;1-425;1-301). Nature of the series: EMSA; 100 mM KCl; affinity near identical to six-subunit; EMSA: 50 mM Tris-HCl pH 7.5 (25 C), 100 mM KCl, 2.5 mM MgCl2, 0.1 mM ZnCl2, 2 mM 2-mercaptoethanol, 0.05 mg/ml BSA, 0.05 mg/ml yeast tRNA, 5% glycerol, 30 C 30. As to conditions: protein: recombinant; tags: MBP tags, removed by Prescission protease; copies: 1;1;1;1;1; label: 5'-32P (EMSA, UV); 5'-biotin (EM); no G4. (In general: In EMSA bound probe runs differently from free probe, usually more slowly.)

In series [2] the target is PRC2 four-subunit holoenzyme (EZH2-EED-SUZ12-RBAP48) (UniProt Q15910-2;O75530;Q15022;Q09028 1-751;1-441;1-739;1-425). The series is described as follows: EMSA; 100 mM KCl; EMSA: 50 mM Tris-HCl pH 7.5 (25 C), 100 mM KCl, 2.5 mM MgCl2, 0.1 mM ZnCl2, 2 mM 2-mercaptoethanol, 0.05 mg/ml BSA, 0.05 mg/ml yeast tRNA, 5% glycerol, 30 C 30. Particulars: protein: recombinant; tags: MBP tags, removed by Prescission protease; copies: 1;1;1;1; label: 5'-32P (EMSA, UV); 5'-biotin (EM); no G4.
PRC2 four-subunit holoenzyme (EZH2-EED-SUZ12-RBAP48), sequence (Q15910 other isoform, or with tags, fused parts or gaps, chain 1 of 4): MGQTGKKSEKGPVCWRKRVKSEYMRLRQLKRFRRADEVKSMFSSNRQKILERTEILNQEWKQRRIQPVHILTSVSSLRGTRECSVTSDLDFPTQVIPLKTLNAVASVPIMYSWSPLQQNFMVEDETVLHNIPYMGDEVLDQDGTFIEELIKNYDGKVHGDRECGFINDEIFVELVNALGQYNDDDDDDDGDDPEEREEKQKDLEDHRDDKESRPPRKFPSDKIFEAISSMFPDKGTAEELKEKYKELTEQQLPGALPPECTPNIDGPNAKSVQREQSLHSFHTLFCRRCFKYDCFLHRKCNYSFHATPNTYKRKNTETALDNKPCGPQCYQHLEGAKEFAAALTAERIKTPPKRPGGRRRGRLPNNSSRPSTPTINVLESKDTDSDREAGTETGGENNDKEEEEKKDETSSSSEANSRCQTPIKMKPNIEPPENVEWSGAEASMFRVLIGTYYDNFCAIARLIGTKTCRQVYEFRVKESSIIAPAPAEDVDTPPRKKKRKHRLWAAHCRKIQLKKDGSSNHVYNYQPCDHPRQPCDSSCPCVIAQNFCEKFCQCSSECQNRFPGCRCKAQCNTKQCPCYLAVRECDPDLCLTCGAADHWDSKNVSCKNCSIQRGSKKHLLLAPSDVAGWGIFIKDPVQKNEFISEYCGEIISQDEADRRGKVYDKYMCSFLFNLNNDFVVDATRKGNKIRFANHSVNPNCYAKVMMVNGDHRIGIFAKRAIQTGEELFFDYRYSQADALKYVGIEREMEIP
PRC2 four-subunit holoenzyme (EZH2-EED-SUZ12-RBAP48), sequence (O75530 whole entry, chain 2 of 4): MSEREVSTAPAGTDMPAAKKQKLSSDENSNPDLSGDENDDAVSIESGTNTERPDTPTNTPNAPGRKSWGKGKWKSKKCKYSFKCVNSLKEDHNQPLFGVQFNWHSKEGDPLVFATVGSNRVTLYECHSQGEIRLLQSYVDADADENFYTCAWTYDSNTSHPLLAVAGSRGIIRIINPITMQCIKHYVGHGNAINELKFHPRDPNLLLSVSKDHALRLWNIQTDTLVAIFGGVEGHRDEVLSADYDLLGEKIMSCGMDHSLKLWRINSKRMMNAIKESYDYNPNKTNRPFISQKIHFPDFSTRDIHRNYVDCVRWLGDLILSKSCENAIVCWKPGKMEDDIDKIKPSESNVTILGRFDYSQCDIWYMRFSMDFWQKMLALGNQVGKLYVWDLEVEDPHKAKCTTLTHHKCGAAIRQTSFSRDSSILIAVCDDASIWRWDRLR
PRC2 four-subunit holoenzyme (EZH2-EED-SUZ12-RBAP48), sequence (Q15022 whole entry, chain 3 of 4): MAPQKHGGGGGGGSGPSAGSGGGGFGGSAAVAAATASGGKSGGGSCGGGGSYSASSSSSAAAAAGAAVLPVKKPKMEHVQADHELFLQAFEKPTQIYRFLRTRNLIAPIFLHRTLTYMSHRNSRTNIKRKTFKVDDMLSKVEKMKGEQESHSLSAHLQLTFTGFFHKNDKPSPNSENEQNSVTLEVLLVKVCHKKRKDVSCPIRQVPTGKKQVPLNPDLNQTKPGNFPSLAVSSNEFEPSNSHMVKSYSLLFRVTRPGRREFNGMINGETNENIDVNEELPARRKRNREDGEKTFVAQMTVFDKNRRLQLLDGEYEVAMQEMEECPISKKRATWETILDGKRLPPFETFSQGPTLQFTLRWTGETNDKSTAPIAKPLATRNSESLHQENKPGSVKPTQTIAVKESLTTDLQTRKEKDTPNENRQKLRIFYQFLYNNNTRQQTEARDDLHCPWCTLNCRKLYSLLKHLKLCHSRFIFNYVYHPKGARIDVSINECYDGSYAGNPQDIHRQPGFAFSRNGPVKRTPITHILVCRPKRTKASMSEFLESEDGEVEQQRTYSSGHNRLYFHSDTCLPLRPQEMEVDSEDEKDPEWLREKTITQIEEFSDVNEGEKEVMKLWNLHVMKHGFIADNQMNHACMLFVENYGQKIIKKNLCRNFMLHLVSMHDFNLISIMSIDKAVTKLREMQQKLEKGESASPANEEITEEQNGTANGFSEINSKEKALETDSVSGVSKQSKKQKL
PRC2 four-subunit holoenzyme (EZH2-EED-SUZ12-RBAP48), sequence (Q09028 whole entry, chain 4 of 4): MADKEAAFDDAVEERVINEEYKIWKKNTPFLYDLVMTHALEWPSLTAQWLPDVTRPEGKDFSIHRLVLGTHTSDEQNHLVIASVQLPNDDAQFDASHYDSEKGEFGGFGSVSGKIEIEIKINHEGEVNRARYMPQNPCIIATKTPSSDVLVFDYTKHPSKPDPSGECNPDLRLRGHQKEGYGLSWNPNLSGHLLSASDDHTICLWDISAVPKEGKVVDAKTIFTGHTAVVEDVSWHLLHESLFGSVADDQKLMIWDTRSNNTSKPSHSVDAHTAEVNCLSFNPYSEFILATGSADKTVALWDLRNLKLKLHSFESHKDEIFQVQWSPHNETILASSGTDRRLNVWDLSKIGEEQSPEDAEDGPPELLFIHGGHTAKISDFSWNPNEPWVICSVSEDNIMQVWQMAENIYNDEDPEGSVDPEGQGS

B1: TERRAmut (ssRNA)
RNA: AAAAAAAAAAGAGAGAGAUGAGUGUGAGUGUGAGUGUGAGUGAGAGAGAG
For the molecule B1, the binding signal was 4 Kd ratio TERRAmut/TERRA in series [1] and 12 Kd ratio TERRAmut/TERRA in series [2].
